# From US20230242902A1, “A HIGHLY ERROR-PRONE […] R[…] FOR TARGETED CONTINUOUS EVOLUTION IN VIVO” (The Regents of the University of California, priority 2017, published 2023)
# System: p1
# Test: p1 copy number by p1-encoded mKate2 fluorescence
# Type: cell-based, S. cerevisiae
# Conditions: OR-Y24, measured in triplicate
# How it was run: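 Yeast OR-Y24 strains carrying TP-DNAP1 variants were grown to saturation from a 1:10,000 dilution, and p1-encoded mKate2 fluorescence was measured by flow cytometry (ex/em 561/620 nm). Values were converted to copy number via a linear calibration against qPCR of p1-encoded LEU2 versus genomic LEU3, or by plate-reader OD600-normalized fluorescence relative to w.t. TP-DNAP1.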
row,Molecule,Mean fold-increase over w.t. (p1 copy number) [fold]
1,N687G: TP-DNAP1 variant (protein) MDYKDKALNDLRNVYADFDSLPLDFRQILIKDRATLLQKEDVEKKILERQEDAKKYAEYLKQSEIPERISLPNIKRHKGVSISFEETSEDMVLEPRPFIFDGLNIRCFRRETIFSLKNKILNMVKESSSFKNVSRQSVSFMYFKIFNKGKVIASTKSVNIYEDKIDERLEDLCNNFDDVLKKIIDVTYGYESLFVSETYSYVIFYAKSIYFPQPRCVNNWGNNIPNILTFDSFKLFTANKNNVSCIKQCSRFLWQKDFNTLEEMIEYKNGNICIVTPQLHINDVRDIKSFNDIRLYSESPIKTFSVIDNTITYLFYFKEHLGVIFNITKSRHDRRVTKFSPLSKFSDVKNITVCFDIESYFDPEKESNQVNIPFICCASIIYNKVIGNIVDFEGRDCVAQMIEYVVDICGELNISSVELIAHNGGGYDFHYILSSMYNPAAIKNILIRNNSFISFNFAHDGVKFSVKDSYSFLLCSLANASKAFLNEETFKKTDFPHHDLKTADDLYKVYKEWSSVNTEINHVVEKEKLLITSEHIVNFTKNDKSKTLIEWSKDYCRNDVLVLSKVWLEFKNAVEDIFNCELVDQTMTLAGLSYKLFQANMPFDVELRHPNKEDYFNMREALIGGRCISVNGIYKDVLCLDVKSLYPASMAFYDQPYGSFKRVSSRPKDELGIYYVRVTPNRNNKSGFFPIRSHNKITYNNFEESTYIAWYTNVDIDIGLSEGHNIEYIPFDSYGNIGYSWSKKGKIFEKYIKDVLYKLKIKYEKQNNKVKRNVIKIIMNSLWGKFAQKWVNFEYFIKSEDDIDFESEEAYKIWDTDFMLIKKIKESTYSSKPIQNGVFTLSWARYHMKSIWDAGAKEGAECIYSDTDSIFVHKEHFKKNAKFMLNGLKVPIIGSEVGQLELECEFDKLLCAGKKQYMGFYTYFQDGKPCIKEKKRFKGIPSNYIIPELYAHLLSGADKEAKIQFLKFRREWGSVKGYIENKTVKAT,1.65
2,R692I: TP-DNAP1 variant (protein) MDYKDKALNDLRNVYADFDSLPLDFRQILIKDRATLLQKEDVEKKILERQEDAKKYAEYLKQSEIPERISLPNIKRHKGVSISFEETSEDMVLEPRPFIFDGLNIRCFRRETIFSLKNKILNMVKESSSFKNVSRQSVSFMYFKIFNKGKVIASTKSVNIYEDKIDERLEDLCNNFDDVLKKIIDVTYGYESLFVSETYSYVIFYAKSIYFPQPRCVNNWGNNIPNILTFDSFKLFTANKNNVSCIKQCSRFLWQKDFNTLEEMIEYKNGNICIVTPQLHINDVRDIKSFNDIRLYSESPIKTFSVIDNTITYLFYFKEHLGVIFNITKSRHDRRVTKFSPLSKFSDVKNITVCFDIESYFDPEKESNQVNIPFICCASIIYNKVIGNIVDFEGRDCVAQMIEYVVDICGELNISSVELIAHNGGGYDFHYILSSMYNPAAIKNILIRNNSFISFNFAHDGVKFSVKDSYSFLLCSLANASKAFLNEETFKKTDFPHHDLKTADDLYKVYKEWSSVNTEINHVVEKEKLLITSEHIVNFTKNDKSKTLIEWSKDYCRNDVLVLSKVWLEFKNAVEDIFNCELVDQTMTLAGLSYKLFQANMPFDVELRHPNKEDYFNMREALIGGRCISVNGIYKDVLCLDVKSLYPASMAFYDQPYGSFKRVSSRPKDELGIYYVRVTPNRNNKSNFFPIISHNKITYNNFEESTYIAWYTNVDIDIGLSEGHNIEYIPFDSYGNIGYSWSKKGKIFEKYIKDVLYKLKIKYEKQNNKVKRNVIKIIMNSLWGKFAQKWVNFEYFIKSEDDIDFESEEAYKIWDTDFMLIKKIKESTYSSKPIQNGVFTLSWARYHMKSIWDAGAKEGAECIYSDTDSIFVHKEHFKKNAKFMLNGLKVPIIGSEVGQLELECEFDKLLCAGKKQYMGFYTYFQDGKPCIKEKKRFKGIPSNYIIPELYAHLLSGADKEAKIQFLKFRREWGSVKGYIENKTVKAT,1.99
3,"R692F, T706E: TP-DNAP1 variant (protein) MDYKDKALNDLRNVYADFDSLPLDFRQILIKDRATLLQKEDVEKKILERQEDAKKYAEYLKQSEIPERISLPNIKRHKGVSISFEETSEDMVLEPRPFIFDGLNIRCFRRETIFSLKNKILNMVKESSSFKNVSRQSVSFMYFKIFNKGKVIASTKSVNIYEDKIDERLEDLCNNFDDVLKKIIDVTYGYESLFVSETYSYVIFYAKSIYFPQPRCVNNWGNNIPNILTFDSFKLFTANKNNVSCIKQCSRFLWQKDFNTLEEMIEYKNGNICIVTPQLHINDVRDIKSFNDIRLYSESPIKTFSVIDNTITYLFYFKEHLGVIFNITKSRHDRRVTKFSPLSKFSDVKNITVCFDIESYFDPEKESNQVNIPFICCASIIYNKVIGNIVDFEGRDCVAQMIEYVVDICGELNISSVELIAHNGGGYDFHYILSSMYNPAAIKNILIRNNSFISFNFAHDGVKFSVKDSYSFLLCSLANASKAFLNEETFKKTDFPHHDLKTADDLYKVYKEWSSVNTEINHVVEKEKLLITSEHIVNFTKNDKSKTLIEWSKDYCRNDVLVLSKVWLEFKNAVEDIFNCELVDQTMTLAGLSYKLFQANMPFDVELRHPNKEDYFNMREALIGGRCISVNGIYKDVLCLDVKSLYPASMAFYDQPYGSFKRVSSRPKDELGIYYVRVTPNRNNKSNFFPIFSHNKITYNNFEESEYIAWYTNVDIDIGLSEGHNIEYIPFDSYGNIGYSWSKKGKIFEKYIKDVLYKLKIKYEKQNNKVKRNVIKIIMNSLWGKFAQKWVNFEYFIKSEDDIDFESEEAYKIWDTDFMLIKKIKESTYSSKPIQNGVFTLSWARYHMKSIWDAGAKEGAECIYSDTDSIFVHKEHFKKNAKFMLNGLKVPIIGSEVGQLELECEFDKLLCAGKKQYMGFYTYFQDGKPCIKEKKRFKGIPSNYIIPELYAHLLSGADKEAKIQFLKFRREWGSVKGYIENKTVKAT",1.89
4,R692C: TP-DNAP1 variant (protein) MDYKDKALNDLRNVYADFDSLPLDFRQILIKDRATLLQKEDVEKKILERQEDAKKYAEYLKQSEIPERISLPNIKRHKGVSISFEETSEDMVLEPRPFIFDGLNIRCFRRETIFSLKNKILNMVKESSSFKNVSRQSVSFMYFKIFNKGKVIASTKSVNIYEDKIDERLEDLCNNFDDVLKKIIDVTYGYESLFVSETYSYVIFYAKSIYFPQPRCVNNWGNNIPNILTFDSFKLFTANKNNVSCIKQCSRFLWQKDFNTLEEMIEYKNGNICIVTPQLHINDVRDIKSFNDIRLYSESPIKTFSVIDNTITYLFYFKEHLGVIFNITKSRHDRRVTKFSPLSKFSDVKNITVCFDIESYFDPEKESNQVNIPFICCASIIYNKVIGNIVDFEGRDCVAQMIEYVVDICGELNISSVELIAHNGGGYDFHYILSSMYNPAAIKNILIRNNSFISFNFAHDGVKFSVKDSYSFLLCSLANASKAFLNEETFKKTDFPHHDLKTADDLYKVYKEWSSVNTEINHVVEKEKLLITSEHIVNFTKNDKSKTLIEWSKDYCRNDVLVLSKVWLEFKNAVEDIFNCELVDQTMTLAGLSYKLFQANMPFDVELRHPNKEDYFNMREALIGGRCISVNGIYKDVLCLDVKSLYPASMAFYDQPYGSFKRVSSRPKDELGIYYVRVTPNRNNKSNFFPICSHNKITYNNFEESTYIAWYTNVDIDIGLSEGHNIEYIPFDSYGNIGYSWSKKGKIFEKYIKDVLYKLKIKYEKQNNKVKRNVIKIIMNSLWGKFAQKWVNFEYFIKSEDDIDFESEEAYKIWDTDFMLIKKIKESTYSSKPIQNGVFTLSWARYHMKSIWDAGAKEGAECIYSDTDSIFVHKEHFKKNAKFMLNGLKVPIIGSEVGQLELECEFDKLLCAGKKQYMGFYTYFQDGKPCIKEKKRFKGIPSNYIIPELYAHLLSGADKEAKIQFLKFRREWGSVKGYIENKTVKAT,1.69
5,R692F: TP-DNAP1 variant (protein) MDYKDKALNDLRNVYADFDSLPLDFRQILIKDRATLLQKEDVEKKILERQEDAKKYAEYLKQSEIPERISLPNIKRHKGVSISFEETSEDMVLEPRPFIFDGLNIRCFRRETIFSLKNKILNMVKESSSFKNVSRQSVSFMYFKIFNKGKVIASTKSVNIYEDKIDERLEDLCNNFDDVLKKIIDVTYGYESLFVSETYSYVIFYAKSIYFPQPRCVNNWGNNIPNILTFDSFKLFTANKNNVSCIKQCSRFLWQKDFNTLEEMIEYKNGNICIVTPQLHINDVRDIKSFNDIRLYSESPIKTFSVIDNTITYLFYFKEHLGVIFNITKSRHDRRVTKFSPLSKFSDVKNITVCFDIESYFDPEKESNQVNIPFICCASIIYNKVIGNIVDFEGRDCVAQMIEYVVDICGELNISSVELIAHNGGGYDFHYILSSMYNPAAIKNILIRNNSFISFNFAHDGVKFSVKDSYSFLLCSLANASKAFLNEETFKKTDFPHHDLKTADDLYKVYKEWSSVNTEINHVVEKEKLLITSEHIVNFTKNDKSKTLIEWSKDYCRNDVLVLSKVWLEFKNAVEDIFNCELVDQTMTLAGLSYKLFQANMPFDVELRHPNKEDYFNMREALIGGRCISVNGIYKDVLCLDVKSLYPASMAFYDQPYGSFKRVSSRPKDELGIYYVRVTPNRNNKSNFFPIFSHNKITYNNFEESTYIAWYTNVDIDIGLSEGHNIEYIPFDSYGNIGYSWSKKGKIFEKYIKDVLYKLKIKYEKQNNKVKRNVIKIIMNSLWGKFAQKWVNFEYFIKSEDDIDFESEEAYKIWDTDFMLIKKIKESTYSSKPIQNGVFTLSWARYHMKSIWDAGAKEGAECIYSDTDSIFVHKEHFKKNAKFMLNGLKVPIIGSEVGQLELECEFDKLLCAGKKQYMGFYTYFQDGKPCIKEKKRFKGIPSNYIIPELYAHLLSGADKEAKIQFLKFRREWGSVKGYIENKTVKAT,2.6
6,R692K: TP-DNAP1 variant (protein) MDYKDKALNDLRNVYADFDSLPLDFRQILIKDRATLLQKEDVEKKILERQEDAKKYAEYLKQSEIPERISLPNIKRHKGVSISFEETSEDMVLEPRPFIFDGLNIRCFRRETIFSLKNKILNMVKESSSFKNVSRQSVSFMYFKIFNKGKVIASTKSVNIYEDKIDERLEDLCNNFDDVLKKIIDVTYGYESLFVSETYSYVIFYAKSIYFPQPRCVNNWGNNIPNILTFDSFKLFTANKNNVSCIKQCSRFLWQKDFNTLEEMIEYKNGNICIVTPQLHINDVRDIKSFNDIRLYSESPIKTFSVIDNTITYLFYFKEHLGVIFNITKSRHDRRVTKFSPLSKFSDVKNITVCFDIESYFDPEKESNQVNIPFICCASIIYNKVIGNIVDFEGRDCVAQMIEYVVDICGELNISSVELIAHNGGGYDFHYILSSMYNPAAIKNILIRNNSFISFNFAHDGVKFSVKDSYSFLLCSLANASKAFLNEETFKKTDFPHHDLKTADDLYKVYKEWSSVNTEINHVVEKEKLLITSEHIVNFTKNDKSKTLIEWSKDYCRNDVLVLSKVWLEFKNAVEDIFNCELVDQTMTLAGLSYKLFQANMPFDVELRHPNKEDYFNMREALIGGRCISVNGIYKDVLCLDVKSLYPASMAFYDQPYGSFKRVSSRPKDELGIYYVRVTPNRNNKSNFFPIKSHNKITYNNFEESTYIAWYTNVDIDIGLSEGHNIEYIPFDSYGNIGYSWSKKGKIFEKYIKDVLYKLKIKYEKQNNKVKRNVIKIIMNSLWGKFAQKWVNFEYFIKSEDDIDFESEEAYKIWDTDFMLIKKIKESTYSSKPIQNGVFTLSWARYHMKSIWDAGAKEGAECIYSDTDSIFVHKEHFKKNAKFMLNGLKVPIIGSEVGQLELECEFDKLLCAGKKQYMGFYTYFQDGKPCIKEKKRFKGIPSNYIIPELYAHLLSGADKEAKIQFLKFRREWGSVKGYIENKTVKAT,1.88
